Test results published in IntAct's records for PubMed 15507434.

B1: Microphthalmia-associated transcription factor (Homo sapiens), O75030 (parent)
chain: MQSESGIVPDFEVGEEFHEEPKTYYELKSQPLKSSSSAEHPGASKPPISSSSMTSRILLRQQLMREQMQEQERREQQQKLQAAQFMQQRVPVSQTPAINVSVPTTLPSATQVPMEVLKVQTHLENPTKYHIQQAQRQQVKQYLSTTLANKHANQVLSLPCPNQPGDHVMPPVPGSSAPNSPMAMLTLNSNCEKEGFYKFEEQNRAESECPGMNTHSRASCMQMDDVIDDIISLESSYNEEILGLMDPALQMANTLPVSGNLIDLYGNQGLPPPGLTISNSCPANLPNIKRELTACIFPTESEARALAKERQKKDNHNLIERRRRFNINDRIKELGTLIPKSNDPDMRWNKGTILKASVDYIRKLQREQQRAKELENRQKKLEHANRHLLLRIQELEMQARAHGLSLIPSTGLCSPDLVNRIIKQEPVLENCSQDLLQHHADLTCTTTLDLTDGTITFNNNLGTGTEANQAYSVPTKMGSKLEDILMDDTLSPVGVTDPLLSSVSPGASKTSSRRSSMSMEETEHTC

Variants of: B1
Conditions: with tfeb_human TFEB

effect of a mutation on the interaction | Variant
with no effect | K289R;K423R

Variants of: B1
Conditions: with tfe3_human TFE3, P19532
tfe3_human TFE3, P19532, sequence (P19532 whole entry): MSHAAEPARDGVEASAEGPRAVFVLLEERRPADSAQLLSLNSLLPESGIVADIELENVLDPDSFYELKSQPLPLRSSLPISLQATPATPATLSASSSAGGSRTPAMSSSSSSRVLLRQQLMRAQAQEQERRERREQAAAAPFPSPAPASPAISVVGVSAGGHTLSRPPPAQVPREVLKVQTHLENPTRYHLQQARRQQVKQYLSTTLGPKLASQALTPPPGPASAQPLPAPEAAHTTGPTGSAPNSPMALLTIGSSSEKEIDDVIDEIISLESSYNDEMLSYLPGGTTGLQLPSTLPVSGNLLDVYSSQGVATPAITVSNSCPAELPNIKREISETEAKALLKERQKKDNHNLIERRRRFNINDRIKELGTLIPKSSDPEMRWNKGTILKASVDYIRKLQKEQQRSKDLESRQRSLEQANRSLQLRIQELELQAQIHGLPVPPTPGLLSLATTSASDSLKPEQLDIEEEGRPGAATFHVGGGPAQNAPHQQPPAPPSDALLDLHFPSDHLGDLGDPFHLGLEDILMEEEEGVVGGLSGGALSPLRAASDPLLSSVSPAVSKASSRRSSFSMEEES

effect of a mutation on the interaction | Variant
with no effect | K289R;K423R
